The numbers were not newly measured in paper doi:10.1101/2023.01.28.526057v3 (bioRxiv, 2023), which cites them from elsewhere.

For this series the following is noted: rat modeling parameter, Table S7, column PBS.

In the case of liraglutide, the “t1/2 in SC” value is recorded as 0.9504 min.
